Experimental data published in patent publication US20060040861A1, “Method of treating, preventing, and diagnosing prostate cancer” (priority 2004, published 2006).

What was measured:
JNK = assay: In vitro JNK assay on lysates of treated human cancer cells; assay type: cell-based
Protocol: Eighty-percent confluent prostate cancer cells were starved in the serum-free medium for 24 hours and then treated by 12.5 μg/ml leptin or 10 μg/ml anisomycin for the indicated periods. In some experiments, cells were pretreated with SP600125 prior to cytokine stimulation as described below. Cells were washed twice with cold PBS, harvested by a scraper and centrifuged for 10 minutes at 700×g at 4° C. The pellet was homogenized in the cell lysis buffer (20 mM HEPES, pH 7.9, 300 mM NaCl, 1 mM EDTA, 15% glycerol, 0.5% NP-40, 1 mM Na3VO4, 1 μg/ml leupeptin, 5 μg/ml aprotinin, 1 μg/ml pepstatin and 1 mM PMSF) and incubated at 4° C. with gentle rocking for 30 minutes. This homogenate was centrifuged for 5 minutes at 15,000×g, and the supernatant was saved as a cell lysate and stored at −80° C. until use.
JNK activity was measured using the SAPK/JNK Assay Kit (Cell Signaling Technology Inc.) according to the manufacture's instructions. Briefly, JNK was precipitated in 250 μl of cell lysates (250 μg protein) with 2 μg of glutathione Sepharose beads immobilized by a recombinant fusion protein of the c-Jun N-terminus (1-89) and glutathione S-transferase as a JNK substrate. After being washed with the cell lysis buffer 3 times, the precipitates were incubated in 50 μl of the kinase buffer containing 100 μM ATP at 30° C. for 30 minutes. The reaction was stopped by addition of the SDS sample buffer. The N-terminal c-Jun (1-89) fusion protein was separated by SDS-polyacrylamide gel electrophoresis, and its phoshporylation was determined by Western blot analysis using anti-phospho-c-Jun (Ser-63) polyclonal antibody as described above. JNK protein levels in cell lysates were also measured by Western blot analysis using anti-JNK antibody to normalize sample variations.
Seventy-percent confluent cells were deprived of serum for 24 hours, followed by treatment with 1 μg/ml f- or g-adiponectin or 10 μg/ml anisomycin for indicated periods. After being rinsed with cold phosphate-buffered saline, cells were harvested using a scraper and collected by centrifugation at 700×g for 10 minutes at 4° C. The cell pellets were then homogenized in cell lysis buffer (20 mM HEPES, pH 7.9, 300 mM NaCl, 1 mM Na3VO4, 1 μg/ml leupeptin, 5 μg/ml aprotinin, 1 μg/ml pepstatin, and 1 mM phenylmethylsulfonyl fluoride) and rocked gently for 30 minutes at 4° C. The homogenates were centrifuged at 15,000×g for 5 minutes at 4° C., and the supernatants were saved as cell lysates and stored at −80° C. until use.
Using the stress-activated protein kinase/JNK assay kit, JNK activity was assessed with a fusion protein of the c-Jun NH2 terminus (amino acids 1 to 89) and glutathione S-transferase as a substrate according to the manufacture's instructions with some modifications as reported before (M. Onuma, et al., supra, 2003). Briefly, JNK was precipitated in cell lysates (250-500 μg of protein) with 2 μg of glutathione-Sepharose beads immobilized by the fusion protein. The precipitates were rinsed with the cell lysis buffer three times, followed by incubation in 50 μl of the kinase buffer containing 100 μM ATP at 30° C. for 30 minutes. The reaction was terminated by adding the SDS sample buffer. The substrate fusion protein was separated by SDS-polyacrylamide gel electrophoresis, and its phosphorylation by JNK was determined by Western blot analysis using anti-phospho-c-Jun (Ser-63) polyclonal antibody. To normalize sample variations, JNK protein levels were also determined by Western blot analysis using anti-JNK antibody.

PC-3 cells = assay: MTT assay (cell growth / viability); assay type: cell-based, human; details: 5 days
Protocol: (§1) DU145 (1×10^3/well), PC-3 (1×10^3/well) and LNCaP-FGC (1.5×10^3/well) cells were seeded in 96-well plates 24 hours prior to serum starvation. Cells were starved of serum for 24 hours and then incubated in the serum-free medium with or without 12.5 μg/ml leptin for 5 days. 3-(4,5-dimethylthiazol-2-yl)-2,5-diphenyl tetrazolium bromide (MTT) was added to each well to a concentration of 0.5 mg/ml. After 3-hour incubation at 37° C., cells were lysed in 50% dimethylformamide and 20% SDS at 37° C. Optical densities (O.D.) at 550 nm and 670 nm were measured by a plate reader, and differential O.D. between 550 nm and 670 nm (O.D. 550 nm minus O.D. 670 nm) were determined. Each experiment was performed in quadruplicate, and the values are reported as mean±SD.
(§2) DU145 (0.5-1.0×10^3/well), PC-3 (0.5-1.0×10^3/well), and LNCaP FGC (0.75-1.5×10^3/well) cells were seeded in 96-well plates 24 hours prior to serum starvation. Cells were starved of serum for 24 hours and then incubated in the serum-free medium with or without cytokine(s), DHT and/or doxorubicin at indicated concentrations for 5 days. MTT was added to each well to a concentration of 0.5 mg/ml. After being incubated at 37° C. for 3 hours, cells were lysed in 50% dimethylformamide and 20% SDS at 37° C. Optical densities (OD) at 550 and 670 nm were measured by a plate reader, and differential OD between 550 and 670 nm (OD 550 minus OD 670 nm) were determined. Each experiment was performed in quadruplicate, and the values were reported as mean±S.D.

LNCaP-FGC cells = assay: MTT assay (cell growth / viability); assay type: cell-based, human; details: 5 days
Protocol: as §1, §2

Molecule	time of peak JNK activation after addition (JNK; DU145, 12.5 μg/ml leptin)	time of return of JNK activation to the basal level (JNK; DU145, 12.5 μg/ml leptin)	JNK activity (JNK; DU145, 12.5 μg/ml leptin, up to 60 minutes)	JNK activity (JNK; LNCaP-FGC, 12.5 μg/ml leptin, up to 60 minutes)	time of peak JNK activation after addition (JNK; PC-3, 12.5 μg/ml leptin)	JNK activity (JNK; PC-3, 12.5 μg/ml leptin, up to 60 minutes)	living cells (MTT) (PC-3 cells; 12.5 μg/ml leptin, serum-free)	live cell mass (MTT) (LNCaP-FGC cells; 12.5 μg/ml leptin, serum-free)	time of peak JNK activation after addition (JNK; DU145, PC-3, LNCaP-FGC and HepG2 cells, 1.0 μg/ml)	JNK activation (JNK; DU145, PC-3, LNCaP-FGC and HepG2 cells, 1.0 μg/ml, up to 60 minutes)	effect on the conditioned medium stimulation of cell growth (MTT) (PC-3 cells; 1 μg/ml f-adiponectin)	effect on the doxorubicin suppression of cell growth (MTT) (PC-3 cells; 1 μg/ml f-adiponectin)	cell growth (MTT) at concentrations up to 1 μg/ml (PC-3 cells; serum-free)	concentration at which the inhibitory effect on cell growth saturated (PC-3 cells; MTT)	effect on DHT-stimulated cell growth (MTT) (LNCaP-FGC cells; 1 μg/ml f-adiponectin, 10 nM DHT)	effect on the conditioned medium stimulation of cell growth (MTT) (LNCaP-FGC cells; 1 μg/ml f-adiponectin)	effect on the doxorubicin suppression of cell growth (MTT) (LNCaP-FGC cells; 1 μg/ml f-adiponectin)	cell growth (MTT) at concentrations up to 1 μg/ml (LNCaP-FGC cells; serum-free)	concentration at which the inhibitory effect on cell growth saturated (LNCaP-FGC cells; MTT)
leptin: Recombinant human leptin purchased from R&D Systems; major adipose cytokine	15 min	45 min	stimulated JNK activity	did not influence JNK activity	15 min	stimulated JNK activity	increased living cells	did not influence	–	–	–	–	–	–	–	–	–	–	–
f-adiponectin: Recombinant human full-length (non-proteolytic) adiponectin, about 30-kDa polypeptide; lot mainly HMW form (protein, UniProt Q15848 1-244, looked up, full-length, Recombinant human full-length (non-proteolytic) adiponectin, about 30-kDa polypeptide; lot mainly HMW form) MLLLGAVLLLLALPGHDQETTTQGPGVLLPLPKGACTGWMAGIPGHPGHNGAPGRDGRDGTPGEKGEKGDPGLIGPKGDIGETGVPGAEGPRGFPGIQGRKGEPGEGAYVYRSAFSVGLETYVTIPNMPIRFTKIFYNQQNHYDGSTGKFHCNIPGLYYFAYHITVYMKDVKVSLFKKDKAMLFTYDQYQENNVDQASGSVLLHLEVGDQVWLQVYGEGERNGLYADNDNDSTFTGFLLYHDTN	–	–	–	–	–	–	–	–	10 min	further stimulated JNK activation	drastically suppressed	enhanced the doxorubicin suppression	inhibited cell growth in a dose-dependent manner	1 µg/mL	significantly suppressed	drastically suppressed	enhanced the doxorubicin suppression	inhibited cell growth in a dose-dependent manner	1 µg/mL
